± gives the uncertainty stated by the source.
Experiment: self-splicing fitness, log relative to wild type (ln ratio); higher = more splicing; Tetrahymena group I intron in knt gene, E. coli kanamycin selection, DiMSum; sequences stand for … in CUCUCU…GGAGGGAAAAGUUAUCAGGCAUGCACCUGGUAGCUAGUCUUUAAACCAAUAGAUUGCAUCGGUUUAAAAGGCAAGACCGUCAAAUUGCGGGAAAGGGGUCAACAGCCGUUCAGUACCAAGUCUCAGGGGAAACUUUGAGAUGGCCUUGCAAAGGGUAUGGUAAUAAGCUGACGGACAUGGUCCUAACCACGCAGCCAAGUCCUAAGUCAACAGAUCUUCUGUUGAUAUGGAUGCAGUUCACAGACUAAAUGUCGGUCGGGGAAGAUGUAUUCUUCUCAUAAGAUAUAGUCGGACCUCUCCUUAAUGGGAGCUAGCGGAUGAAGUGAUGCAACACUGGAGCCGCUGGGAACUAAUUUGUAUGCGAAAGUAUAUUGAUUAGUUUUGGAGUACUCGUGGUCG
Procedure, shortened: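 A randomised library covering all eight P1ex-region intron nucleotides was built with the intron in the knt kanamycin-resistance gene on pET-22b(+) and held in E. coli BL21(DE3). Cells were grown overnight at 37°C or 30°C on LB agar, with or without 25 μg/mL kanamycin, plus 100 μg/mL carbenicillin, 50 μM IPTG and 0.2% rhamnose, and pooled colonies were amplicon-sequenced on an Illumina HiSeq 2500. DiMSum fitness is the error-weighted combination of wild-type-normalised replicate fold changes, kanamycin versus none.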

Row | Sequence | self-splicing fitness (ln) (30 °C) | self-splicing fitness (ln) (37 °C)
1 | GAUAAGCAAUAUUACGUCAG | -4.56 ± 0.32 | -2.5 ± 0.23
2 | GAUAAGCAAUAUUACGUCGA | -1.54 ± 0.14 | -0.37 ± 0.13
3 | GAUAAGCAAUAUUACGUGUA | -2.1 ± 0.14 | -1.04 ± 0.14
4 | GAUAAGCAAUAUUACGUUAU | -2.81 ± 0.1 | -1.63 ± 0.1
5 | GAUAAGCAAUAUUACGUUCA | -0.732 ± 0.093 | -0.316 ± 0.12
6 | GAUAAGCAAUAUUACGUUCU | -1.8 ± 0.14 | -2.58 ± 0.29
7 | GAUAAGCAAUAUUACGUUUC | -3.88 ± 0.18 | -2.34 ± 0.2
8 | GAUCAGCAAUAUUACGACGC | -0.169 ± 0.077 | 0.198 ± 0.09
9 | GAUCAGCAAUAUUACGAGAG | -1.7 ± 0.082 | -0.506 ± 0.082
10 | GAUCAGCAAUAUUACGCAAC | -1.5 ± 0.13 | -0.455 ± 0.17
11 | GAUCAGCAAUAUUACGCACA | -0.0131 ± 0.12 | 0.404 ± 0.13
12 | GAUCAGCAAUAUUACGCAUC | -4.75 ± 0.31 | -3.11 ± 0.24
13 | GAUCAGCAAUAUUACGCUAC | -3.38 ± 0.48 | -1.62 ± 0.29
14 | GAUCAGCAAUAUUACGCUGC | -3.18 ± 0.19 | -2.18 ± 0.23
15 | GAUCAGCAAUAUUACGGCGA | -0.479 ± 0.15 | -0.214 ± 0.15
16 | GAUCAGCAAUAUUACGGGUU | -3.12 ± 0.26 | -2.88 ± 0.38
17 | GAUCAGCAAUAUUACGGUAG | -0.683 ± 0.084 | 0.269 ± 0.1
18 | GAUCAGCAAUAUUACGGUCA | -1.6 ± 0.14 | -0.459 ± 0.1
19 | GAUCAGCAAUAUUACGGUUG | -1.02 ± 0.053 | -0.343 ± 0.073
20 | GAUCAGCAAUAUUACGUAAC | -0.807 ± 0.093 | -0.643 ± 0.13
21 | GAUCAGCAAUAUUACGUACC | -0.223 ± 0.073 | -0.245 ± 0.099
22 | GAUCAGCAAUAUUACGUACU | -0.188 ± 0.067 | -0.441 ± 0.074
23 | GAUCAGCAAUAUUACGUCCU | -0.874 ± 0.1 | -0.0507 ± 0.092
24 | GAUCAGCAAUAUUACGUCGC | -1.11 ± 0.1 | 0.0313 ± 0.11

Row | Sequence | self-splicing fitness (ln) (30 °C) | self-splicing fitness (ln) (37 °C)
25 | GAUCAGCAAUAUUACGUGGA | -2.82 ± 0.26 | -1.22 ± 0.13
26 | GAUGAGCAAUAUUACGACAC | -1.25 ± 0.15 | -0.309 ± 0.16
27 | GAUGAGCAAUAUUACGAGAC | -2.67 ± 0.25 | -1.97 ± 0.3
28 | GAUGAGCAAUAUUACGAUAA | -3.49 ± 0.43 | -1.6 ± 0.33
29 | GAUGAGCAAUAUUACGCAGA | -3.98 ± 0.43 | -0.801 ± 0.19
30 | GAUGAGCAAUAUUACGCAUG | -1.61 ± 0.13 | -2.14 ± 0.2
31 | GAUGAGCAAUAUUACGCCAA | -2.45 ± 0.26 | -2.61 ± 0.29
32 | GAUGAGCAAUAUUACGCCGA | – | -1.44 ± 0.45
33 | GAUGAGCAAUAUUACGCGAG | -0.593 ± 0.16 | -0.578 ± 0.2
34 | GAUGAGCAAUAUUACGCGGC | – | -2.77 ± 0.38
35 | GAUGAGCAAUAUUACGCUCU | -3.24 ± 0.36 | -2.02 ± 0.44
36 | GAUGAGCAAUAUUACGCUGA | -3.11 ± 0.44 | -2.46 ± 0.38
37 | GAUGAGCAAUAUUACGCUUG | -3.15 ± 0.39 | -1.07 ± 0.3
38 | GAUGAGCAAUAUUACGCUUU | -3.32 ± 0.21 | -3.79 ± 0.33
39 | GAUGAGCAAUAUUACGGAGC | -3.9 ± 0.3 | -0.441 ± 0.13
40 | GAUGAGCAAUAUUACGGCGU | -0.735 ± 0.11 | -0.736 ± 0.13
41 | GAUGAGCAAUAUUACGGCUC | -0.914 ± 0.26 | -1.12 ± 0.32
42 | GAUGAGCAAUAUUACGGGCU | -2.22 ± 0.4 | –
43 | GAUGAGCAAUAUUACGGGUU | -2.39 ± 0.17 | -2.6 ± 0.27
44 | GAUGAGCAAUAUUACGGUCA | -3.49 ± 0.47 | -0.516 ± 0.19
45 | GAUGAGCAAUAUUACGGUGG | -4.41 ± 0.23 | -1.73 ± 0.14
46 | GAUGAGCAAUAUUACGUACA | -2.09 ± 0.16 | -0.48 ± 0.13
47 | GAUGAGCAAUAUUACGUACG | -2.59 ± 0.35 | -1.55 ± 0.5
48 | GAUGAGCAAUAUUACGUUUC | -2.77 ± 0.31 | -2.57 ± 0.29

Row | Sequence | self-splicing fitness (ln) (30 °C) | self-splicing fitness (ln) (37 °C)
49 | GAUUAGCAAUAUUACGACUC | -0.282 ± 0.13 | 0.2 ± 0.16
50 | GAUUAGCAAUAUUACGAGCG | -1.27 ± 0.12 | 0.534 ± 0.12
51 | GAUUAGCAAUAUUACGAGGG | -2.81 ± 0.29 | -2.88 ± 0.29
52 | GAUUAGCAAUAUUACGAGUU | -2.53 ± 0.14 | -0.583 ± 0.11
53 | GAUUAGCAAUAUUACGAUAG | -2.37 ± 0.13 | -1.1 ± 0.16
54 | GAUUAGCAAUAUUACGAUGA | -1.8 ± 0.13 | 0.00201 ± 0.11
55 | GAUUAGCAAUAUUACGCACA | -0.341 ± 0.17 | -0.721 ± 0.12
56 | GAUUAGCAAUAUUACGCAGU | -3.28 ± 0.32 | -1.44 ± 0.19
57 | GAUUAGCAAUAUUACGCCUU | -0.529 ± 0.11 | -0.304 ± 0.12
58 | GAUUAGCAAUAUUACGGACC | -0.347 ± 0.18 | -0.379 ± 0.16
59 | GAUUAGCAAUAUUACGGAUU | -3.17 ± 0.21 | -2.13 ± 0.23
60 | GAUUAGCAAUAUUACGGCAU | -0.835 ± 0.11 | 0.24 ± 0.12
61 | GAUUAGCAAUAUUACGGCCG | -1.01 ± 0.13 | -1.01 ± 0.19
62 | GAUUAGCAAUAUUACGGCGU | -0.737 ± 0.068 | -0.796 ± 0.062
63 | GAUUAGCAAUAUUACGGGAU | -2.76 ± 0.2 | -1.14 ± 0.18
64 | GAUUAGCAAUAUUACGGGGC | -3.62 ± 0.49 | -2.97 ± 0.3
65 | GAUUAGCAAUAUUACGGUCC | -3.27 ± 0.39 | –
66 | GAUUAGCAAUAUUACGUAUA | -2.65 ± 0.22 | -0.643 ± 0.19
67 | GAUUAGCAAUAUUACGUCAG | -3.51 ± 0.35 | -4.23 ± 0.46
68 | GAUUAGCAAUAUUACGUCUU | -0.485 ± 0.086 | -0.732 ± 0.088
69 | GAUUAGCAAUAUUACGUGUG | -2.13 ± 0.077 | -1.61 ± 0.075
70 | GAUUAGCAAUAUUACGUGUU | -2.85 ± 0.22 | -1.66 ± 0.14
71 | GAUUAGCAAUAUUACGUUGA | -2.8 ± 0.22 | -2.25 ± 0.19
72 | GCAAAGCAAUAUUACGAACC | -0.831 ± 0.13 | -0.43 ± 0.17

Row | Sequence | self-splicing fitness (ln) (30 °C) | self-splicing fitness (ln) (37 °C)
73 | GCAAAGCAAUAUUACGAAUA | -2.56 ± 0.17 | -0.704 ± 0.13
74 | GCAAAGCAAUAUUACGACAA | -1.43 ± 0.1 | -0.838 ± 0.087
75 | GCAAAGCAAUAUUACGACGA | -0.0819 ± 0.088 | -0.213 ± 0.1
76 | GCAAAGCAAUAUUACGACGG | -2.23 ± 0.13 | -1.2 ± 0.2
77 | GCAAAGCAAUAUUACGAUCU | -0.767 ± 0.087 | -0.252 ± 0.099
78 | GCAAAGCAAUAUUACGCAAA | -1.95 ± 0.1 | -1.58 ± 0.1
79 | GCAAAGCAAUAUUACGCACG | -1.83 ± 0.12 | -0.806 ± 0.11
80 | GCAAAGCAAUAUUACGCGAU | -2.8 ± 0.23 | -2.73 ± 0.3
81 | GCAAAGCAAUAUUACGCGUA | -0.985 ± 0.075 | -0.362 ± 0.071
82 | GCAAAGCAAUAUUACGGCCG | -0.0405 ± 0.18 | -1.41 ± 0.33
83 | GCAAAGCAAUAUUACGGCCU | -0.867 ± 0.12 | -0.967 ± 0.16
84 | GCAAAGCAAUAUUACGGCGG | -1.18 ± 0.13 | -2.07 ± 0.2
85 | GCAAAGCAAUAUUACGGGGA | -2.9 ± 0.16 | -1.99 ± 0.15
86 | GCAAAGCAAUAUUACGGUAC | -1.91 ± 0.086 | 0.0303 ± 0.092
87 | GCAAAGCAAUAUUACGGUGC | -2.45 ± 0.12 | -3.66 ± 0.27
88 | GCAAAGCAAUAUUACGGUGU | -4.55 ± 0.29 | -2.71 ± 0.25
89 | GCAAAGCAAUAUUACGUGCG | -0.856 ± 0.067 | -0.144 ± 0.095
90 | GCAAAGCAAUAUUACGUUCC | -0.778 ± 0.082 | -0.849 ± 0.14
91 | GCAAAGCAAUAUUACGUUGG | -1.94 ± 0.069 | -1.32 ± 0.09
92 | GCAAAGCAAUAUUACGUUUG | -4.2 ± 0.17 | -3.24 ± 0.15
93 | GCACAGCAAUAUUACGAACC | -0.135 ± 0.15 | 0.621 ± 0.18
94 | GCACAGCAAUAUUACGAACU | -0.419 ± 0.056 | -0.167 ± 0.072
95 | GCACAGCAAUAUUACGACAA | -1.18 ± 0.087 | -1.22 ± 0.087
96 | GCACAGCAAUAUUACGACCU | -0.6 ± 0.11 | -0.325 ± 0.13

— the supplement of paper PMC7877785
